Measured values as given in patent US20210101945A1 (University of Washington, published 2021).

Tests used:
[1] = molecular target: the molecule itself; assay: characterisation of the purified design (method not given); self-association
[2] = molecular target: the molecule itself; assay: X-ray crystal structure; homodimer
Excerpt: (§1) The optimum conditions for crystallization of the different designs were found as follows: 2L6HC3_6, 0.2 M Sodium Fluoride, 0.1 M MES pH 5.5 and 20% PEG 400; 2L6HC3_12, 2.2 M Sodium Malonate pH 5.0; 2L6HC3_13, 0.06 M Citric acid, 0.04 M BIS-TRIS propane pH 4.1 and 16% PEG 3,350; 2L8HC4_12, 0.2 M Sodium Acetate trihydrate, 0.1 M Tris hydrochloride pH 8.5 and 30% PEG 4,000; 3L6HC2_2, 0.1 M Sodium Acetate trihydrate pH 4.5 and 3.0 M Sodium chloride; 2L4HC2_23, 0.2 M Lithium chloride and 20% PEG 3,350; 2L4HC2_9, 0.1 M Sodium citrate tribasic dehydrate […]; 2L4HC2_11, 0.1 M Tris pH 8.5 and 2.0 M Ammonium sulfate; 5L6HC3_1, 0.1 M acid pH 3.5 and 3.0 M Sodium chloride; and 2L4HC2_24 was concentrated to 20 mg/ml and crystallized in 0.1 M Citric acid pH 3.5, 2.0 M Ammonium sulfate. […]
(§2) The crystals of the designed proteins were placed in a reservoir solution containing 15 to 20% (v/v) glycerol, and then flash-cooled in liquid nitrogen. […] All the design structures were determined by the molecular-replacement method with the program PHASER within the Phenix suite using the design models as the initial search model. […] Root-mean-square deviation differences from ideal geometries for bond lengths, angles and dihedrals were calculated with Phenix. The overall stereochemical quality of all final models was assessed using the program MOLPROBITY.

[3] = molecular target: the molecule itself; assay: X-ray crystal structure (3.8 Å) and SAXS; homotetramer
Description: The crystals of the designed proteins were placed in a reservoir solution containing 15 to 20% (v/v) glycerol, and then flash-cooled in liquid nitrogen. The X-ray data sets were collected at the Berkeley Center for Structural Biology beamlines 5.0.1, 8.2.1 and 8.2.2 of the Advanced Light Source at Lawrence Berkeley National Laboratory (LBNL). Data sets were indexed and scaled using HKL2000. All the design structures were determined by the molecular-replacement method with the program PHASER within the Phenix suite using the design models as the initial search model. The atomic positions obtained from molecular replacement and the resulting electron density maps were used to build the design structures and initiate crystallographic refinement and model rebuilding. Structure refinement was performed using the phenix.refine program. Manual rebuilding using COOT and the addition of water molecules allowed construction of the final models. Root-mean-square deviation differences from ideal geometries for bond lengths, angles and dihedrals were calculated with Phenix. The overall stereochemical quality of all final models was assessed using the program MOLPROBITY.
Samples were purified by gel filtration in 20 mM Tris pH 8.0 at room temperature, 150 mM NaCl and 2% glycerol; fractions preceding the void volume of the column were used as blanks for buffer subtraction. […]

[4] = molecular target: the molecule itself; assay: oligomeric state of the purified design, and SAXS; antiparallel homodimer
Description: (§3) Samples were purified by gel filtration in 20 mM Tris pH 8.0 at room temperature, 150 mM NaCl and 2% glycerol; fractions preceding the void volume of the column were used as blanks for buffer subtraction. Scattering measurements were performed at the SIBYLS 12.3.1 beamline at the Advanced Light Source. The X-ray wavelength (λ) was 1 Å, and the sample-to-detector distance of the Mar 165 detector was 1.5 m, corresponding to a scattering vector q (q=4πsin θ/λ, where 2θ is the scattering angle) range of 0.01 to 0.3 Å−1. Data sets were collected using exposures of 0.5, 1, and 6 seconds at 12 keV. […] For each sample, data was collected for at least two different concentrations to test for concentration-dependent effects; “high” concentration samples ranged from 3-7 mg/ml and “low” concentration samples ranged from 1-2 mg/ml. […] FoXS was used to compare design models to experimental scattering profiles and calculate quality of fit (X) values. For the design models, extra residues introduced by the expression vector were added to the computational models using Rosetta™ Remodel so that the design sequence matched that of the experimental sample. To capture the conformational flexibility of these extra tag residues in solution, 100 independent models were generated per design. These 100 models were then clustered by Rosetta™, and to avoid bias, the cluster center of the largest cluster was selected as the single representative model used for fitting to experimental data.

[5] = molecular target: the molecule itself; assay: SAXS against the parallel homodimer design model
Description: (§4) Samples were purified by gel filtration in 20 mM Tris pH 8.0 at room temperature, 150 mM NaCl and 2% glycerol; fractions preceding the void volume of the column were used as blanks for buffer subtraction. Scattering measurements were performed at the SIBYLS 12.3.1 beamline at the Advanced Light Source. The X-ray wavelength (λ) was 1 Å, and the sample-to-detector distance of the Mar 165 detector was 1.5 m, corresponding to a scattering vector q (q=4πsin θ/λ, where 2θ is the scattering angle) range of 0.01 to 0.3 Å−1. Data sets were collected using exposures of 0.5, 1, and 6 seconds at 12 keV. […] For each sample, data was collected for at least two different concentrations to test for concentration-dependent effects; “high” concentration samples ranged from 3-7 mg/ml and “low” concentration samples ranged from 1-2 mg/ml. […] FoXS was used to compare design models to experimental scattering profiles and calculate quality of fit (X) values. For the design models, extra residues introduced by the expression vector were added to the computational models using Rosetta™ Remodel so that the design sequence matched that of the experimental sample. To capture the conformational flexibility of these extra tag residues in solution, 100 independent models were generated per design. […]

[6] = molecular target: the molecule itself; assay: SAXS against the homotetramer design model
Description: as §3

[7] = molecular target: the molecule itself; assay: X-ray crystal structure; homotrimer
Excerpt: as §1, §2

[8] = molecular target: the molecule itself; assay: X-ray crystal structure superimposed on the design model; homotrimer
Excerpt: as §1, §2

[9] = molecular target: the molecule itself; assay: X-ray crystal structure superimposed on the design model; homodimer
Excerpt: as §1, §2

[10] = molecular target: the molecule itself; assay: SAXS, design model fit to the scattering data with FoXS
Description: as §4

[11] = molecular target: the molecule itself; assay: oligomeric state and CD of the synthetic peptide in PBS; self-association

B1: 2L4HC2_9 (designed binder)
chain: GTSDYIIEQIQRDQEEARKKVEEAEERLERVKEASKRGVSSDQLLDLIRELAEIIEELIRIIRRSNEAIKELIKNQS
notes: Monomer subunit (helical hairpin) of a designed left-handed C2 homodimer; entries pair it with itself; Expressed in E. coli with a His tag (C-terminal, or N-terminal and thrombin-cleavable); Underlined residues are said to be optional, but the underlining is not visible
**Q.** Does B1 bind [1]?
**A.** Result: binds

B2: 2L4HC2_24 (designed binder)
chain: GTDTDELLRLAKEQAELLKEIKKLVEEIARLVKEIQEDPSDELLKTLAELVRKLKELVEDMERSMKEQLYIIKKQKS
notes: Monomer subunit of a designed left-handed C2 homodimer; entries pair it with itself
**Q.** Does B2 bind [2]?
**A.** Result: binds

B3: 2L8HC4_12 (designed binder)
chain: GTAIEANSRMLKALIEIAKAIWKALWANSLLLEATSRGDTERMRQWAEEAREIYKEAKKIIDEADEIVKEAKERHD
notes: Monomer subunit of a designed left-handed C4 homotetramer; entries pair it with itself; also called lefthanded tetramer
**Q.** Does B3 bind [3]?
**A.** Result: binds

B4: 2L6Hanti_1 (designed binder)
chain: SDYLRLATEHNKLAVEANRLAIELAKSAVELAETDPSKTALEHAELAARLLEMMVQFTKAAQELTREAIRKEGRNEESEKVLRKSKEAYKESEKALEDARRLLDELRKKGS
notes: Monomer subunit (three helices) of a designed left-handed antiparallel homodimer; entries pair it with itself
**Q.** Does B4 bind [4]?
**A.** Result: binds

B5: 2L6Hanti_2 (designed binder)
chain: SEELRKAAENNELAVRLAEAALRMARSALHLFEENPSDEMLKFLELAMEVAKMAAELLKASLKMLKKAAEERGSDESVKYLADKSRDIMRQITEELKKLEEEAKRAQKRGS
notes: Monomer subunit of a designed left-handed antiparallel homodimer; entries pair it with itself
**Q.** Does B5 bind [4]?
**A.** Result: binds

B6: 2L6Hanti_3 (designed binder)
chain: SEKARIAVENLEAALRLNRAAAEMQKSAIKIMDDNRSDEKALRYLRLTTKVLRMSVELLRASLELAEKALREEGSDDSAEKVRKEAEEILKESTEILKEADKETKRADEEGS
notes: as for B5
**Q.** Does B6 bind [4]?
**A.** Result: binds

B7: 2L6Hanti_4 (designed binder)
chain: SRRLELAARINKAAAENARSAIEIQELAARLADELSSSKKVIDFARATTEVLRMSVKLLKLSLEMLEEAARQDGRSEEVRYLAEESKKILEEARKALEDADRLTKRIEEEGS
notes: as for B5
**Q.** Does B7 bind [4]?
**A.** Result: binds

B8: 2L6Hanti_5 (designed binder)
chain: TDVLRIAAENLKAAVELAKAALEMAKSAIEIAKTLTEDDEALKFARAAAEVLRMAAKLLKLSIELARKAAEEEGSDDEVRYILDEARKQADELREALKKVDEIMKELDKRGS
notes: as for B5
**Q.** Does B8 bind [4]?
**A.** Result: binds

B9: 3L6HC2_4 (designed binder)
chain: SALEKIAKLIIEAARLSAELARRAARASAEMARKAIEAVSEERGSESLLKIVADLIVESQEAVVRLIIESQQIAAKLAEDLIRAAKEAASDESKMEEVAKEVQERAERAARDIERKLKRVLEELDYKLKESRDGS
notes: Monomer subunit of a designed parallel right-handed six-helix C2 homodimer; entries pair it with itself
**Q.** Does B9 bind [5]?
**A.** Result: binds

B10: 3L6HC2_7 (designed binder)
chain: SILELAHESNRRALEMASRANREAMKAAREMIRAASEAARRAGSSNDKDSLRMIEEALRLALRMIEETNKKAVRMVLENNRKMVEAEKKKLSEEEIKRIAKETEDRMREIARRASEEARRLAEEIKREADYRSGS
notes: as for B9
**Q.** Does B10 bind [5]?
**A.** Result: binds

B11: 5L8HC4_1 (designed binder)
chain: GSKVEELLRKSEEAAERAKRELERLLEESERIVAEAQALAEKYESQKVWVRILIELIRATNRMLAEIARILLEMIEVTNRMIAESTK
notes: Monomer subunit of a designed untwisted C4 homotetramer; entries pair it with itself
**Q.** Does B11 bind [6]?
**A.** Result: binds

B12: 5L8HC4_2 (designed binder)
chain: SEQLKEIARILIKLIESLTRFILEVARILIELIEETQRLIVASTDSDESELERIARESKKKAKKALDELKKIVDDQRREAKKAIEELEYDGS
notes: as for B11
**Q.** Does B12 bind [6]?
**A.** Result: binds

B13: 5L8HC4_6 (designed binder)
chain: GSKDTEDSRKIWEDIRRLLEEARKNSEEIWKEITKNPDTSEIARLLSEQLLEIAEMLVRIAELLSRQTEQR
notes: as for B11
**Q.** Does B13 bind [6]?
**A.** Result: binds

B14: 5L6HC3_1 (designed binder)
chain: SEELRAVADLQRLNIELARKLLEAVARLQELNIDLVRKTSELTDEKTIREEIRKVKEESKRIVEEAEEEIRRAKEESRYIADESRGS
notes: Monomer subunit of a designed untwisted C3 homotrimer; entries pair it with itself; also called untwisted trimer
**Q.** Does B14 bind [7]?
**A.** Result: binds

B15: 2L6HC3_13 (designed binder)
chain: GTKYELRRALEELEKALRELKKSLDELERSLEELEKNPSEDALVENNRLNVENNKIIVEVLRIIAEVLKINAKSD
notes: Monomer subunit of a designed left-handed C3 homotrimer; entries pair it with itself; also called AAXX
**Q.** Does B15 bind [8]?
**A.** Result: binds

B16: 2L6HC3_6 (designed binder)
chain: GTKYKIKETLKRLEDSLRELRRILEELKEMLERLEKNPDKDVIVEVLKVIVKAIEASVENQRISAENQKALAESD
notes: Monomer subunit of a designed left-handed C3 homotrimer; entries pair it with itself; also called XXBB
**Q.** Does B16 bind [8]?
**A.** Result: binds

B17: 2L4HC2_23 (designed binder)
chain: GTRTEIIRELERSLREQEELAKRLKELLRELERLQREGSSDEDVRELLREIKELVEEIEKLAREQKYLVEELKRQD
notes: as for B2
**Q.** Does B17 bind [9]?
**A.** Result: binds

B18: 5L4HC2_12 (designed binder)
chain: GTETKKLVEEVERALRELLKTSEDLVRKVEKALRELLELIRRGGTKDKIEEKIRRVLEEIKRELERQKRKIEDVLRQIKEELYRS
notes: Monomer subunit of a designed untwisted C2 homodimer; entries pair it with itself
**Q.** Does B18 bind [10]?
**A.** Result: binds

B19: 2L6HC3_12 (designed binder)
chain: GTKYELRRALEELEKALQELREMLRKLKESLEELKKNPSEDALVRNNELIVEVLRVIVEVLSIIARVLEINARSD
notes: Monomer subunit of a designed left-handed C3 homotrimer; entries pair it with itself
**Q.** Does B19 bind [7]?
**A.** Result: binds

B20: 2L4HC2_11 (designed binder)
chain: GSEDYKLREAQRELDKQRKDTEEIRKRLKEIQRLTDERTSTADELIKELREIIRRLQEQSEKLREIIEELEKIIRKR
notes: as for B2
**Q.** Does B20 bind [2]?
**A.** Result: binds

B21: 2L6HC3_13_inner (peptide)
peptide: Ac-TERENNYRNEENNRKIEEEIREIKKEIKKNKERD-NH2
notes: Synthetic inner-ring-only peptide; reported as unfolded and monomeric in isolation; also called inner ring peptide of 2L6HC3_13
**Q.** Does B21 bind [11]?
**A.** Result: no binding
